{"source": "a protein production outcome set (Wang et al. 2014)", "assay": "label from the status in PepcDB records"}
{"sequence": "MALPDRRAEGVAASLAGALIPAFLAAQDRIIEMVPFRTSATLFAFVLTIVFLAFALRVLFSFRDVRSAAVETALFATGFLYVPLLLTHLAWLRALPDGVGWIFLVLVIVMSGDTAAYYVGSNLGRRKLYPSVSPNKSVEGAIGGLLGSLAGTFVARLTFFPGLTVLDCIATALLLGVLGQVGDLFESLLKRSFGVKDSGTIVPGHGGILDRLDSILFAVPAAYYYALFVFMNR", "values": [{"measurement": "protein production", "value": "failed"}]}
{"sequence": "AWQAAVASNEPFGEAQLAQRIRRYLPEQGQLFVGNSLVVRLIDALAQLPAGYPVYSNRGASGIDGLIATAAGVQRASARPTLAIVGDLSALYDLNSLALLRQASAPLVLIVVNNNGGQIFSMLPTPQDERRQFYLMPQDVDFSHAAVMFGLAYHRPDDWPSLDEALAGAWRRAGATVIELAVNETDGAQTLQQLLAQVSRL", "values": [{"measurement": "protein production", "value": "failed"}]}
{"sequence": "MELSQRQERIIEIVKTKGPITGEQIADKLNLTRATLRPDLAILTMSGFLEARPRVGYYYSGKSKGKFFNEKLRQFEVKDYMSQPVVLRENTTVYDAICTIFLEDVSTLFIINEDNDFVGVCSRKDLLRASMIGADIHTVPISVNMTRMPNVTYLEESELVIYAADRMIEKEIDSIPIVRKKDNQKYEVIGRISKTTIAKLLVALYKE", "values": [{"measurement": "protein production", "value": "not failed"}]}
{"sequence": "MMKEFTPAPDSASIVSVTDRVKPVALGMGVTSVHFLGDRAAFVGGEENVAFVDSQGEITTVAVHGGGILSTASDGKRLVMGGDDGKVVSLDAKGEVTLLATDPKRRWIDAVALHADGAFAWSAGKTATVKSGKTEEKSLEVPSTVGGLAFAPKGLRLAIAHYNGATLWFPNMAASAEFLPWAGSHHAVTFSPDNKFLVTAMHEPALHGWRLADNRHMRMTGYPGRVRSMSWSAGGKALATSGADTVILWPFGSKDGPMGKEPAMLAPLQARVSVVACHPKNDILAAGYSDGTVLMVRLEDGAEILVRRNGTPPVAALAWNAKGTLLAFADENGDGGLLEL", "values": [{"measurement": "protein production", "value": "failed"}]}
{"sequence": "MPSGLEQCAPRCRALLQGESGVQIQGHYELKFEAVREAFAALFEDSQERGAALCIQVGGETVIDLWAGTADKDGAEAWHSDTIANLFSCTKTFTAVTALQLVAEGKLKLDAPVADYWPEFAAAGKAAITLRQLLCHQAGLPAVRELLPAQALYEWQTMVDALAAEQPWWTPGEGHGYAAITYGWLVGELIRRADGRGPGESIVARVARPLGLDFHVGLADEEFYRVAHIARGKGNMGDAAAQRLLQVTMREPDAMSTRAFTNPPSILTSTNKPEWRRMQQPAANGHGNARSLAGFYSGLLDGSLLEADMLEELTREHSLGMDKTLLTQTRFGLGCMLDQPQVANATFGLGARAFGHPGAGGSIGFADPEHDVAFGFVTNTLGPYVLMDPRAQKLVRVLSDCLLEHHHHHH", "values": [{"measurement": "protein production", "value": "failed"}]}
{"sequence": "MNLVETAQAIEAGQVSLGIELGSTRIKAVLVTDDFNTIASGSYVWENRFEDGVWTYPLEEVWSGIQQSYTQMAADVQSKYHASLKHINAIGVSAMMHGYLAFDKNNELLVPFRTWRNNITGQSADELTKLFDFNIPQRWSIAHLYQAVLNDEDHVAKVDFITTLAGYVTWKLSGEKVLGVGDASGVFPIDEKTGSYDQAMLDKFSSLDNVKRYPWQIENILPSILPAGKIAGKLTADGANLLDASGNLEAGSVMAPPEGDAGTGMVGTNSVRKRTGNISVGTSAFSMNVLDKPLSKVYRDIDIVMTPDGSPVAMVHVNNCSSDINAWASIFSEFAARLGVDLKPDRLYETLFLESTKADANAGGLVNYSYQSGENITKIQAGRPLFVRTPNSKFSLPNFMLTQLYAAFAPLQIGMDILVNEEHVQTDVMIAQGGLFRTPVIGQQVLANALNIPITVMSTAGEGGPWGMAVLAAYAQRQTGANLEDFLDQEVFTNPESMTLSPEPAGVAGYQEFIKNYQAGLPVEAAAGEAISD", "values": [{"measurement": "protein production", "value": "failed"}]}
{"sequence": "MDINMFILYFFIYSVLGWAWEEVFCSISEKKLVYRGFLYGPYCPIYGFGVTTVLMMILPFQNNLWALFIFSMIICTVIEYVTATILEALFHTTWWDYHNWPLNVKGRICLPISIFWGFACIIVVRFLHPLVTEFADWVLSWGGWIIPALIVVLMLIDTIKSVTSMLSFQKVLAEFNEKLTAQANELKASVKERAKEFEEGLLKKQENVDMKIAEMEAKRKQDKELAASMRKLKFNERRMLKSFPKMKVKRAAPFKNFNKSILRVDKQKRK", "values": [{"measurement": "protein production", "value": "failed"}]}
{"sequence": "SDYEKFLLFGDSITEFAFNTRPIEDGKDQYALGAALVNEYTRKMDILQRGFKGYTSRWALKILPEILKHESNIVMATIFLGANDACSAGPQSVPLPEFIDNIRQMVSLMKSYHIRPIIIGPGLVDREKWEKEKSEEIALGYFRTNENFAIYSDALAKLANEEKVPFVALNKAFQQEGGDAWQQLLTDGLHFSGKGYKIFHDELLKVIETFYPQYHPKNMQYKLKDWRDVLDDGSNIMS", "values": [{"measurement": "protein production", "value": "not failed"}]}
{"sequence": "MGHHHHHHSHSPSPSSRVTVSRASSSRSVRTTRGKRKRVDVEESEASSSVSISHSASATGNVCIEEIDVDGKFIRLKNTSEQDQPMGGWEMIRKIGDTSVSYKYTSRYVLKAGQTVTIWAANAGVTASPPTDLIWKNQNSWGTGEDVKVILKNSQGEEVAQRSTVFKTTIPEEE", "values": [{"measurement": "protein production", "value": "not failed"}]}
{"sequence": "MINLWPLLLPAAAWSGWWLANRSNSNKDAHVHNRLSREYVVGLNYLLNEQSDKAVDVFIKLLEVDSDTVETHLALGSLFRRRGEVDRAIRIHQNLIARPQLSIQQRKEALMALGQDYMSAGVFDRAERIFLEVVELGGSRDTSSLQGLLAIYQQEKAWEKALDIIKKLEISTGASFHNQAAHYYCEMASQALKINAMDRAIYCIKQAMNVDPESVRASLMNATIEIKEGRYKQAIRSLKRVPQQDAEFLTEIIEPLVLCHKELDSMPDCIHYLEQTLEKHPRASVIFVIADYLRQNKGMDIAIDFVADNLSKHPSIRGLNRLIYWHLESAHGKVREKLQMLYDITSKFLDNKPIYRCGHCGFGGKHLHWHCPSCKQWGRMKPIHGLEGD", "values": [{"measurement": "protein production", "value": "failed"}]}
{"sequence": "MLQQLFASPILSVQTLHPSYEDHASDVFLVQTKDEEVIVRSSKMTEEPNNDFWWGCKNLFGIDPRNVHHLEYIHELLKKHTNLPIPTILQKHVLNGRKYVSVEKLTGSTLQSFVGQSDSILFSLGKGLAEIHSFQAEFIGNPSGTFQVPLEEFKSHILKVSKELVNRFYSDNTSIRNAFSTFESQLSSLPTPKEATLVLIDMDPTQFLSDGTTITGLVDTEAYAVAPRELDFISLEYVFTEKEAHAFKQGYETIMPIPNLVECRHPYRYLYRLLSIQGSVELEKWLSHPSYF", "values": [{"measurement": "protein production", "value": "failed"}]}
{"sequence": "MCLDACLTPDLADRDPVGRACDRAYVIDRPVFRSAMGNCRPSHFRGNGTHAAMNGESCAQRGKRTHKMQESEFFQLSGTTAVLLLVAFYGATFLMSLMIGQKKENVDGYMVSNSSVGFGLSAASMIATWIWAASFYASATSGFKYGLSGPIHYGFWGALMILFIYPFGKRFRQLAPKAHTLAEVIHARHGASSQMIMAVSNIVGSCISLMVNFTAAGALVSVLSPLSFIQGVLIAGLGVLSYTLWSGFRASVMTDFAQLVAMILAAVIIIPLIFFNAGGPDMLQANMWRLSSEQADFFSTTAILEQGAPYFVAVLAYAIGNQTIAQRLFAVREDLIKPTFLTATIGYGAVVIGLGMLGLLALFVGLEPVNGNMNNIIPQMASTYLPPVGIALFFILVVGSLSSTADSDLAALSAIVMTDIYAKNLAGGRPDPRRMLWWGRATMIVATMVGVIFASLRLDILVMLVFVGALWGAIVFPVIASFYWDRVSNSAFFWSVISAVVLFTIVRFELVPIEGAVAVFYEICAAIGGGVVIGLMSFAFFGRVTALTLGTLATLFLLPCFVGTLREYIVLLGSLTAYGVSTVVCVALSLRNQERFDFSLLAERVTSFHYEKARMMGAKPAAPAAQPQPARG", "values": [{"measurement": "protein production", "value": "failed"}]}
{"sequence": "SINKVLDHFRRKGINQHVQNGYHGIVMNNFECEPAFYTCVEVTAGNRLFYHIVDSDEVSTKILMEFNKMNLPGEVTFLPLNKLDVRDTAYPETNDAIPMISKLRYNPRFDKAFKHVFGKTLICRSMEVSTQLARAFTMDCITLEGDQVSHRGALTGGYYDTRKSRLELQKDVRKAEEELGELEA", "values": [{"measurement": "protein production", "value": "failed"}]}
{"sequence": "MDEYAGRVLADRYRLPLPPSDEYELAETRAFDTYSGQEVLVRQVPLPEVVEAEVLDADGLPAGFVARDGGTRRASARTATRRPAEPAVRRAIEAAQAAAQIPDHPRLDQVFDVFAEGGSLWIVSELVAARPLAALLADKPLSPYRAAEVASDVLMALRVLHAHGWVHRNITVRTVLVCDDGRVMLTGLAAGAAEEALCGYDPVPVRDFEPRGDDGGDGTGGNGRGAVRGAAAGGTPGIGSGPGAGSGRPGIGAGSGGPVGAAGGAVGAAAGGMSVAEAEAARRAAIEARAGGVGPVAGTPGGEVPARGARALEGGGDARAQRAGAIAAYRAGARAAARVQEAQRGGRAALPAPRPADAEGRAPQSPGHGVEHLPGALPGQIADPYGVARTNSWPGGFPGDVGGANVGGAYGTPGNGSGTYENGSVPHAPADAPVSTPTPADAVPPTHWDHLVSGSSAPSGPSAASVPRRGPTTALAAERARQARMAVIGPVTERWAPEQAGPVHENWQLAAPIGPATDLWALGALLFRAVQGHAPYPEENTAELVQLVCAEPPAFAEECGPLRPVVESLLRQDPTERLDFEEVRGWLRSLVRSAPEPEAGAHVVAAPPVDPRRLPIVRRRGELVRRRRARLPATTPHARHKRAKDGRPPRPKRLGRNLVLLILLVLAAAVAYAMVFMPKASPNSDSGSRSDGDRTGAAGGVSPAPEQSGGGSEPRPDQTSPGSGKSPSGSSGSTREQTTDPDVAQGFTLRKDPEGFRVAVATGWDRAPKNGRGRIVYSHGDFELIVVPGRDSTADHGSDPLTYQRETESELQPFRDSTWATSSGMRRIDVGGRTMAEGQFTWTDGQGRELFVRNLAIVVGGRYHVVQLRGPEAERDEVTRLYEQASRTYQVTG", "values": [{"measurement": "protein production", "value": "failed"}]}
{"sequence": "MDHGVVLLSDDQGLQWRQASSVPLSTPLTGVSFVDAKRGWAVGHWGAILITTDGGESWQVQRLATEEDRPLFAVHFFNARQGVAVGLWSLVLTTEDGGQTWSEQPLQAPPGAKRADLNLMGLFADSRGTLYATAEHGQVLHSEDQGKNWRYLDTGYEGTLWAGAVLADGRLLLGGQRGTLLQGSADGKGFHRVPTQSKGSVTCVAVAGSRVLAVGLDGLSVQSSDGGHSFQETQTADGLSLTAALFNAEGVPVLFSRRGVMPYQELEHHHHHH", "values": [{"measurement": "protein production", "value": "failed"}]}
{"sequence": "MKDSQEVTHFSAARSSKWTQHDTYWLLSLFGTAVGAGILFLPINIGLGGFWPLVLMAVLAFPMTYLSHRGLARFVLSSRRPNADFTDVVEEHFGQNAGRLISLLYFLSIFPILLIYGVGLTNTVDSFLVNQADMVSPPRALLSGALVFGLIAIMLSGEKIMLRAFAIMVYPLAAILALLSLYLIPYWSMPSFDFPQTSDFLHTVWLAVPVVVFSFSHAAAISSFANIQRRHYGEQADQKSEQILRHTSVVLILFVLLFVFSCVLALSPQALQEAKAQNISVLTYLANVTDNPFIATLGPLVAFIAITSSFLGHFLGARESLSGLLTKNLGVSLRLAERLTIGFLFVTIWIAAILNPSILGMMEALSGPVIAMILFIMPMIAVFKVPALREHQKRFSTFFVLLVGLLAVSALLYSLLR", "values": [{"measurement": "protein production", "value": "failed"}]}
{"sequence": "MNNVFGLDIGTRNVVGTVGYQTDDKEFVVTAQYVREHETRAMLDGQIHDIGRVAKTIKEVKDELEKQTGQPLEEVCIAAAGRVLKTVTTHVEYEYAQESVVTGEDVHTLDLLGIEKAQEALKEVNDTSYKFYCVGYSTVKFFLNDEVFISLEGHKANKIGEDIIVTFLPEDVVDGLYAAVGQAGLSVANMTLEPIAAINVAIPENYRMLNIALVDVGAGTSDISITRDGSIIAYGMIPHAGDELTEVIVQHFLVDFNMAESIKLQSTTSDTVTYKDIMSIEHTIPAQDVWDVAAPVVDNIAQEVSAKIRELNGDKTVSACFVVGGGGKIHGFTEKLAEDLDLPEERVALRGEEVLGDVTFEQEDIKKDPLLVTPIGICLNYYDQRNNFIMVRFNGERIKLYDNNRLTIVDAALQAGFPNDELFPKRGTPINFTVNGVARLVRGEAGEGAVVTMNGKPASINTPLEPNSEIIIEPSTAGEAAVYKISQLDEYNHSVITFIINGRRVSCPRFVQVNGELEPEDYSIRENDVIETRNYYTVRQIAQFMDLVIDTDQMIFVNNEEAGLDTLVYENFSVEWKTDEYGVARIDNNTYNDTQESDTDEASVLAEQDANSTESDNTVARTSEQMMNQVLDELHDDFAKEAEASAVPENELPENELPKNDIQEEIHEEDSSKNTVTVIVNGEPVELSGKDTYIFVDIFTHISFDLQAGKGRAIATVINGRDARFSEELHEGDKIELYWKEN", "values": [{"measurement": "protein production", "value": "failed"}]}
